From patent US11827699 (dated 2023)
Positions count from the first letter of the chain named.

T1: human FcγRIIb (human, UniProt P31994)
T1 chain: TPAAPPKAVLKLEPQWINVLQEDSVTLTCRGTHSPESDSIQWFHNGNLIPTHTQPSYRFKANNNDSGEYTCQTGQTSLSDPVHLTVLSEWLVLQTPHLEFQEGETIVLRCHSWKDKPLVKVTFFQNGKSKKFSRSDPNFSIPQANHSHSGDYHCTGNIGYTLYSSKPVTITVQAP

T2: human FcγRIIa R131 (human, UniProt P12318)
T2 chain: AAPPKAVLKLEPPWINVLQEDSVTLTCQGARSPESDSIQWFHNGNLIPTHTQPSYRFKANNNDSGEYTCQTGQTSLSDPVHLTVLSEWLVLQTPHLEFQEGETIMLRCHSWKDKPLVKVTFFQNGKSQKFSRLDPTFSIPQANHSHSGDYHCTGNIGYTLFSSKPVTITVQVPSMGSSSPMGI

T3: human FcγRIa (human, UniProt P12314)
T3 chain: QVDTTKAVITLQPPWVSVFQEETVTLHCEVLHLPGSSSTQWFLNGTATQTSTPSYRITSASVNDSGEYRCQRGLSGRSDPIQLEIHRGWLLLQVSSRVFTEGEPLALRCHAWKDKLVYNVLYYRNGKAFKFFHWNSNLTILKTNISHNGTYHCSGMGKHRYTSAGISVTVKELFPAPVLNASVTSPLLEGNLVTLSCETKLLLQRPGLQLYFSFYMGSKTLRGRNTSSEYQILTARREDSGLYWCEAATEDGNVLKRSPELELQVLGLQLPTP

T4: human FcγRIIa H131 (human, UniProt P12318)
T4 chain: T2 chain with R132H

B1: IL6R-BP493 (antibody)
chain 1: QVQLQESGPGLVKPSETLSLTCAVSGHSISHDHAWSWVRQPPGEGLEWIGFISYSGITNYNPSLQGRVTISRDNSKNTLYLQMNSLRAEDTAVYYCARSLARTTAMDYWGEGTLVTVSSASTKGPSVFPLAPSSKSTSGGTAALGCLVKDYFPEPVTVSWNSGALTSGVHTFPAVLQSSGLYSLSSVVTVPSSSLGTQTYICNVNHKPSNTKVDKKVEPKSCDKTHTCPPCPAPELLGGDSVFLFPPKPKDTLMISRTPEVTCVVIDVAEEDGEVKFNWYVDGVEVHNAKTKPREEQDNSTYRVVSVLTVLHQDWLNGKEYKCKVSNKALPAPIEKTISKAKGQPREPQVYTLPPSRDELTKNQVSLTCLVKGFYPSDIAVEWESNGQPENNYKTTPPVLDSDGSFFLYSKLTVDKSRWQQGNVFSCSVMHEALHNHYTQESLSLSP
chain 2: not shown
B2: IL6R-BP483 (antibody)
chain 1: B1 chain 1 with E235D, G239D, I266V, V268L, D298Y
chain 2: not shown
B3: IL6R-BP499 (antibody)
chain 1: B1 chain 1 with E235D, G239D, A332R, P398L
chain 2: not shown
B4: IL6R-BP511 (antibody)
chain 1: B1 chain 1 with G239D, E274P, A332R
chain 2: not shown
B5: IL6R-BP481 (antibody)
chain 1: B1 chain 1 with E235D, G239D, D298Y
chain 2: not shown
B6: IL6R-BP445 (antibody)
chain 1: B1 chain 1 with E235D, G239D, D298Y, A332R
chain 2: not shown
B7: IL6R-BP504 (antibody)
chain 1: B1 chain 1 with E235D, G239D, E274P, D298Y
chain 2: not shown
B8: IL6R-BP268 (antibody)
chain 1: B1 chain 1 with E235D, G239D, I266V, A269S
chain 2: not shown
B9: IL6R-BP507 (antibody)
chain 1: B1 chain 1 with E235D, G239D, E274P, D298Y, A332R
chain 2: not shown
B10: IL6R-BP491 (antibody)
chain 1: B1 chain 1 with G239D, A332R
chain 2: not shown
B11: IL6R-BP506 (antibody)
chain 1: B1 chain 1 with E235D, G239D, E274P, A332R
chain 2: not shown
B12: IL6R-BP489 (antibody)
chain 1: B1 chain 1 with E235D, G239D, A332R, P398M
chain 2: not shown
B13: IL6R-BP262 (antibody)
chain 1: B1 chain 1 with G239D, I266V, A269S, D298Y
chain 2: not shown
B14: IL6R-BP505 (antibody)
chain 1: B1 chain 1 with E235D, G239D, E274D, D298Y
chain 2: not shown
B15: IL6R-BP501 (antibody)
chain 1: B1 chain 1 with G239D, D298Y
chain 2: not shown
B16: IL6R-BP479 (antibody)
chain 1: B1 chain 1 with E235D, G239D, V268L, D298Y
chain 2: not shown
B17: IL6R-BP490 (antibody)
chain 1: B1 chain 1 with G239D, D298Y, A332R
chain 2: not shown
B18: IL6R-BP495 (antibody)
chain 1: B1 chain 1 with G239D, I266V, A269G, A332R
chain 2: not shown
B19: IL6R-BP510 (antibody)
chain 1: B1 chain 1 with G239D, E274P, D298Y, A332R
chain 2: not shown
B20: IL6R-BP480 (antibody)
chain 1: B1 chain 1 with E235D, G239D, I266V, V268L, A269S, E271D, D298Y
chain 2: not shown
B21: IL6R-BP484 (antibody)
chain 1: B1 chain 1 with E235D, G239D, I266V, E271D, D298Y
chain 2: not shown
B22: IL6R-BP266 (antibody)
chain 1: B1 chain 1 with E235D, G239D, I266V, A269S, D298Y, A332R
chain 2: not shown
B23: IL6R-BP264 (antibody)
chain 1: B1 chain 1 with E235D, G239D, I266V, A269S, A332R
chain 2: not shown
B24: IL6R-BP436 (antibody)
chain 1: B1 chain 1 with E235D, G239D, I266V, A332R, I334T
chain 2: not shown
B25: IL6R-BP428 (antibody)
chain 1: B1 chain 1 with E235D, G239D, I266V, A269G, D298Y, A332R
chain 2: not shown
B26: IL6R-BP438 (antibody)
chain 1: B1 chain 1 with E235D, G239D, I266V, D298Y, A332R, I334T
chain 2: not shown
B27: IL6R-BP435 (antibody)
chain 1: B1 chain 1 with E235D, G239D, I266V, A269S, E270D, K328A, A332R, I334T
chain 2: not shown
B28: IL6R-BP426 (antibody)
chain 1: B1 chain 1 with E235D, G239D, I266V, E271D, D298Y, A332R
chain 2: not shown
B29: IL6R-BP430 (antibody)
chain 1: B1 chain 1 with E235D, G239D, I266V, V268L, A269G, D298Y, A332R
chain 2: not shown
B30: IL6R-BP423 (antibody)
chain 1: B1 chain 1 with E235D, G239D, I266V, D298Y, A332R
chain 2: not shown

Target: T1, human FcγRIIb
Assay: SPR

Kd	Binder
21 nM	B1
78 nM	B2
1.5 nM	B3
3.5 nM	B4
19 nM	B5
2.6 nM	B6
24 nM	B7
92 nM	B8
2.9 nM	B9
3 nM	B10
3.4 nM	B11
1 nM	B12
120 nM	B13
21 nM	B14
25 nM	B15
56 nM	B16
2.4 nM	B17
9.7 nM	B18
3.8 nM	B19
200 nM	B20
46 nM	B21

Each binder was assayed against human FcγRIIIa V158 (human, UniProt P08637) (assay: SPR).
Chain of human FcγRIIIa V158 (P08637 17-208 F176V): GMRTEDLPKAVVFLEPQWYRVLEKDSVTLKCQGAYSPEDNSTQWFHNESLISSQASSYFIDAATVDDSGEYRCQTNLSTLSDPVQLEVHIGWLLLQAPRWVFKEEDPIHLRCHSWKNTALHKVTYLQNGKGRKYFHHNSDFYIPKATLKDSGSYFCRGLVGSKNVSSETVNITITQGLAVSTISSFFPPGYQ

Kd	Binder
35 µM	B1
40 µM	B22
25 µM	B2
12 µM	B3
71 µM	B4
24 µM	B5
24 µM	B6
34 µM	B7
28 µM	B8
26 µM	B9
21 µM	B10
55 µM	B11
12 µM	B12
26 µM	B23
56 µM	B13
38 µM	B14
19 µM	B15
40 µM	B16
23 µM	B24
23 µM	B17
33 µM	B18
25 µM	B19
46 µM	B20
25 µM	B21

Target: T2, human FcγRIIa R131
Assay: SPR

Kd	Binder
1300 nM	B2
49 nM	B3
180 nM	B4
400 nM	B5
390 nM	B25
80 nM	B6
450 nM	B7
100 nM	B9
120 nM	B10
120 nM	B11
43 nM	B12
350 nM	B23
2000 nM	B13
430 nM	B14
180 nM	B26
900 nM	B16
110 nM	B17
6300 nM	B20
780 nM	B21

Target: T3, human FcγRIa
Assay: SPR

Kd	Binder
0.82 nM	B1
1.3 nM	B2
1.2 nM	B3
6 nM	B4
1 nM	B5
1 nM	B27
2 nM	B6
1.4 nM	B7
4.5 nM	B8
2.6 nM	B9
5.3 nM	B10
3.1 nM	B11
1 nM	B28
1.3 nM	B12
7.4 nM	B23
10 nM	B13
1.1 nM	B14
2.1 nM	B15
5.3 nM	B16
4.5 nM	B17
8.3 nM	B18
6 nM	B19
0.82 nM	B21

Target: T4, human FcγRIIa H131
Assay: SPR

Kd	Binder
19 µM	B1
38 µM	B29
13 µM	B22
18 µM	B2
1 µM	B3
4.3 µM	B4
6.8 µM	B5
32 µM	B25
16 µM	B7
21 µM	B8
2.2 µM	B10
19 µM	B28
0.87 µM	B12
2.8 µM	B23
45 µM	B13
11 µM	B14
1.6 µM	B26
14 µM	B15
15 µM	B16
2 µM	B30
12 µM	B18
4 µM	B19
21 µM	B20
11 µM	B21
